For assay [1], the target named is AcrIE9 (Pseudomonas aeruginosa). Description: SEC; preparative SEC of AcrIE9 during purification, HiLoad 26/600 Superdex 75 pg; 300 mM NaCl, 5% glycerol, 2 mM DTT, 20 mM HEPES pH 7.0. (SEC sorts molecules by how far they enter the pores of the column.)
For assay [2] the target is unchanged. Description: SEC; analytical SEC of the pooled dimeric species of AcrIE9 alone, Superdex 200 increase 10/300 GL; 150 mM NaCl, 2 mM DTT, 5% glycerol, 20 mM HEPES pH 7.0.

A word on the stoichiometry N: it is a count of units in the complex or per binding partner. For AcrIE9 (natural protein), the stoichiometry N in assay [1] and in assay [2] was 2 in each case.
